Measured values: patent publication US20080305099

Legend:
[1] = tested on: ACTH (adrenocorticotropic hormone)
synthetic Aβ40 = synthetic Aβ40 (UniProt P05067)
Aβ42 = Aβ42 (UniProt P05067)

Question: Which “MALDI-TOF molecular weight after reaction with GCP-II at 37° C. for 15 hours” value (shortened to “MALDI-TOF molecular weight”) [1] does the source give for “recombinant GCP-II protein purified from insect cells (Sf21)” here?
Answer: Its value is “characteristically not degraded by GCP-II”.

Question: And the “MALDI-TOF molecular weight” value (insulin β-chain)?
Answer: The value was “characteristically not degraded by GCP-II”.

Question: And the “MALDI-TOF molecular weight” value (amylin)?
Answer: The value was “amylin showed two peaks at 1500 and 2000 after being reacted with GCP-II”.

Question: And the “MALDI-TOF of Aβ40 reacted with GCP-II protein at more than 25 ng/µL” value (synthetic Aβ40)?
Answer: The value was “only one peak was observed at 2,167 which corresponds to Aβ18”.

Question: What about the “MALDI-TOF of Aβ40 reacted with GCP-II protein for 20 hours” value (synthetic Aβ40) of the same substance?
Answer: The value was “two new peaks were observed at 3915 and 2662 in Aβ reacted with 0.5 ng/µM of GCP-II”.

Question: What about the “MALDI-TOF of Aβ reacted with GCP-II inactivated by heating (boiled rGCP-II)” value (synthetic Aβ40) of the same substance?
Answer: The value was “Aβ was not degraded by the inactivated GCP-II”.

Question: And the “endogenous Aβ42 remaining (ELISA) in the medium of swAPP stable HEK293 colony #2 with 0, 0.5, 2.5 and 10 of rGCP-II” value (Aβ42)?
Answer: Its value is “the level of endogenous Aβ42 was decreased”.

Question: And the “Western blot (anti-Aβ antibody 6E10) of Aβ matured for 7 days after 20 hours with rGCP-II” value (Aβ (length not stated))?
Answer: Its value is “Aβ in oligomer form (multimer) was reduced faster than Aβ monomer”.
